{"source": "patent US20250051407A1", "about": "“De novo designed sequence-specific DNA binding proteins” (University of Washington, priority 2023, published 2025)", "molecules": {"B1": {"name": "DBP60: designed DNA-binding protein, SEQ ID NO: 34, DNA target E (protein)", "chain": "DIEKIAKAVKELREELGLTQAEFAKKIGIGQGTLSRFEKGGVLSPKTMERLLKALEKEFGFDVKK"}, "B2": {"name": "DBP56: designed DNA-binding protein, SEQ ID NO: 30, DNA target E (protein)", "chain": "PPPTPFEVAGARIKEERAKLGLTQAELAKVAGVGQATVSRIEKGRKCSWELIEKIFEALKKV"}, "B3": {"name": "DBP62: designed DNA-binding protein, SEQ ID NO: 36, DNA target F (protein)", "chain": "KEELEKLLKIIESLPKKFREVIILKFVEGLSYTEIAERLGVSRGAVYSRLRSALKKIEEALKK"}, "B4": {"name": "DBP47: designed DNA-binding protein, SEQ ID NO: 21, DNA target D (protein)", "chain": "MTPEERERAKEIGREIRELRRERGLTQRELADLLGVSRSTVSDIESGRRLPSEELLRRIREILGV"}, "B5": {"name": "DBP5: designed DNA-binding protein, SEQ ID NO: 3, DNA target A (protein)", "chain": "GFGKAVKAKRAELGLTQAEFAERAGLSRRTIIRIEQGKVKATSTTAEKIAAALGTTVQELEQA"}, "B6": {"name": "DBP43: designed DNA-binding protein, SEQ ID NO: 17, DNA target G (protein)", "chain": "MEELKKLLESGDPKLQGEAVKKIREKLGLTQREFGKKIGVGQAKVSRIEAGKIKLTPELKEKILE"}, "B7": {"name": "DBP89: designed DNA-binding protein, SEQ ID NO: 48, DNA target A (protein)", "chain": "SPAAFDKLTARELAVARLVAQGLPNREIAAALHISPRAVEAHLRKIYRKLGIRRRRELAALLA"}}, "key": {"13 unique dsDNA targets": {"tested_on": "13 unique dsDNA targets", "assay": "All-by-all yeast surface display screen of DBP design hits", "format": "binding", "settings": "for Number of the 13 tested DNA target sequences preferentially bound: including designed target sequence; for Target sequence preference: 13 unique dsDNA targets; for Binding specificity versus design models: all-by-all screen with Rosetta-predicted motifs", "procedure": "And an all-by-all screen of DBP design hits to 13 unique dsDNA targets was performed (FIG. 4, table 2). […] To try to understand these observed binding preferences, each tested DNA sequence was threaded onto each design complex model at all possible base pair alignments, the alternative complex models were relaxed with Rosetta™, and the model with the most favorable Rosetta™ ΔΔG was selected.\nSaccharomyces cerevisiae EBY100 strain cultures were grown in C-Trp-Ura medium supplemented with 2% (w/v) glucose. For induction of expression, yeast cells were centrifuged at 6,000 g for 1 min and resuspended in SGCAA medium supplemented with 0.2% (w/v) glucose at the cell density of 1×10^7 cells per ml and induced at 30° C. for 16-24 h. Cells were washed with PBSF (PBS with 1% (w/v) BSA) and labeled with biotinylated targets using two labeling methods: with-avidity and without-avidity labeling. For the with-avidity method, the cells were incubated with biotinylated target, together with anti-c-Myc fluorescein isothiocyanate (FITC, Miltenyi Biotech) and streptavidin-phycoerythrin (SAPE, ThermoFisher). The concentration of SAPE in the with-avidity method was used at one-quarter of the concentration of the biotinylated targets. For the without-avidity method, the cells were first incubated with biotinylated targets, washed and secondarily labeled with SAPE and FITC.\n(§1) For yeast display characterization of individual designs, including competition assays, DNA sequences encoding the proteins of interest were purchased as Integrated DNA Technologies (IDT) E-Blocks™, transformed into yeast cells, and incubated in 96 well culture plates. Labeling with biotinylated dsDNA targets and SAPE/FITC was performed in a 96 well plate format. For yeast display competition assays, labeling was performed without avidity using 1 μM biotinylated dsDNA duplex oligos and an excess of 8 μM non-biotinylated competitor dsDNA duplex oligos. […] Flow cytometry analysis was performed with an Attune NxT™ flow cytometer with autosampler. Flow cytometry data analysis was performed using custom python code and the CytoFlow™ python package. For each individual sample, gating of the expression population was performed using the CytoFlow™ Gaussian Mixture Model and the ratio of SAPE channel intensity to FITC channel intensity (binding signal/expression signal) was calculated for all gated expression events of the sample."}, "[1]": {"tested_on": "biotinylated target dsDNA with non-biotinylated competitor dsDNA", "assay": "Yeast display competition assay with base-substituted competitor dsDNA", "format": "binding", "settings": "all possible base mutations at each position of the competitor oligo", "source_text": "We used a yeast display competition assay to characterize the DNA binding site specificity of a subset of the designs (FIG. 1A-E, left; FIG. 5). Addition of non-biotinylated competitor dsDNA to biotinylated target sequence reduced binding signal by flow cytometry (FIG. 1A-E, middle). […] For example, in DBP6 (FIG. 1A) R31 and R36 in the design model form bidentate hydrogen bonds with the guanines of base pair positions G12 and C9, respectively, while T32 forms a hydrogen bond with C10.\nas §1"}, "[2]": {"tested_on": "synTF-specific cis-regulatory elements (CRE) in HEK293T cells", "assay": "Transcriptional activation by synTFs in HEK293T cells (ENGRAM)", "format": "cell-based", "settings": "DBP fused to GCN4 dimerization domain and VP64; HEK293T cells expressing PEmax; dependent on spacing between motifs", "source_text": "Next, we investigated whether the DBPs can be used as activators in mammalian cells. A set of synthetic transcription factors (synTFs) were created by fusing the GCN4 dimerization domain and the VP64 activation domain to the C-termini of DBPs 9, 35opt, 48, 57, and 60 which recognize 3 unique motifs. The dimerization domain allows the DBPs to recognize a palindromic target sequence consisting of two binding motifs, improving the binding affinity to the DNA sequence (FIG. 2C). We created synTF specific cis-regulatory elements (CRE) with 4 repeats spaced by 6 bp to drive the expression of downstream genes, and used the ENGRAM (43) recording technology to measure the activity of the synTFs in HEK293 cells. In ENGRAM, each CRE drives the expression of a uniquely barcoded pegRNA, which upon expression is recorded into the DNA TAPE at the HEK3 locus by prime-editor (PEmax); the activity of individual synTFs can be measured as the abundance of the barcode on the DNA TAPE (FIG. 2C). We first tested 3 different spacings-1 bp, 3 bp, and 5 bp-between the palindromic binding motifs to maximize the recorder activity. 3 synTF specific recorders and 1 TCF-LEF-recorder (negative control) were mixed with ratio 2:2:2:1 and co-transfected with synTFs into the HEK293T cells expressing PEmax. Cells were harvested and analyzed 2 days post-transfection. After analyzing the barcode abundance on the DNA TAPE, we observed 3-5 fold activation for DBP9/DBP35 and DBP57/DBP60 (FIG. 2D).\nHEK293T cells expressing PEmax™ were cultured in DMEM High glucose (GIBCO), supplemented with 10% Fetal Bovine Serum (Rocky Mountain Biologicals) and 1% penicillin-streptomycin (GIBCO). Cells were grown with 5% CO2 at 37° C. 1×10^5 cells were seeded on a 48-well plate a day before transfection. Enhancer plasmid and binder plasmid were mixed with a ratio of 2:1. Enhancer variants and background control were mixed with a ratio of 2:2:2:1. A total of 300 ng of plasmid were transfected using Lipofectamine™ 3000 (ThermoFisher, L3000015), following the manufacturer's protocol. Cells were harvested 2 days post-transfection. Genomic DNA was extracted based on the protocol described earlier (43). Briefly, cells were lysed using freshly prepared lysis buffer (10 mM Tris-HCl, pH 7.5; 0.05% SDS; 25 µg/ml protease (ThermoFisher)) for each well. The genomic DNA mixture was incubated at 50° C. for 1 h, followed by an 80° C. enzyme inactivation step for 30 min. The DNA TAPE was amplified from the genomic DNA directly for next generation sequencing. Recorded information was extracted via custom analysis code. Each enhancer has a unique barcode representing its activity. Transcription activation was measured as the fold change in the barcode abundance relative to the negative control barcode. All measurements were performed in triplicates."}}, "note": "“Also recorded” adds a separate entry of the source.", "data": [{"molecule": "DBP9: designed DNA-binding protein, SEQ ID NO: 6, DNA target B (DWERRCAYARRARKELGLTQAELGELAGVSRTTVSRIERGKPDVSEASVEAVLAVL)", "values": [{"measurement": "Number of the 13 tested DNA target sequences preferentially bound", "setting": "13 unique dsDNA targets; 1 μM dsDNA with avidity", "result": "less than 3"}, {"measurement": "Target sequence preference", "setting": "13 unique dsDNA targets", "result": "strong preference for only their designed target sequence"}, {"measurement": "Binding specificity versus design models", "setting": "13 unique dsDNA targets", "result": "bound with specificity closely consistent with the design models"}, {"measurement": "DNA binding site specificity", "setting": "[1]", "result": "specificity for a 6 nucleotide stretch (TGCACA) with peripheral dependence on T8 and A13"}, {"measurement": "Fold activation of synTFs measured as normalized barcode abundance in the DNA TAPE", "setting": "[2]", "result": "3-5 fold"}]}, {"molecule": "DBP90: designed DNA-binding protein, SEQ ID NO: 49, DNA target A (NKYQLSLLESAFQSNRYPDISQRATLASQTGLPERRIKIWFQNRRQRWKRKK)", "values": [{"measurement": "Binding to initial design target", "setting": "13 unique dsDNA targets; yeast surface display, 1 μM dsDNA with avidity", "result": "bound weakly"}, {"measurement": "Binding to alternate target sequence", "setting": "13 unique dsDNA targets; yeast surface display, 1 μM dsDNA with avidity, alternate target H (DBP90), D (DBP48), C (DBP57)", "result": "strongly"}]}, {"molecule": "DBP23: designed DNA-binding protein, SEQ ID NO: 9, DNA target B (PLAELGKAIKEARKRKGLTQAEVAKAAGVSRATVQRLELGKAKSIRPDKLRAILEVVGL)", "values": [{"measurement": "Target sequence preference", "setting": "13 unique dsDNA targets", "result": "bound to most of the targets"}]}, {"molecule": "DBP52: designed DNA-binding protein, SEQ ID NO: 26, DNA target E (RPLTPAEVFGRELRRLRRAAGLTQAELAERAGIGQGTVSRYEHGRRLPSPEEQERLLAAL)", "values": [{"measurement": "Target sequence preference", "setting": "13 unique dsDNA targets", "result": "strong preference for 2 or 3 of the sequence targets"}]}, {"molecule": "DBP51: designed DNA-binding protein, SEQ ID NO: 25, DNA target E (MEADPAVVFGRRLRAARRAKGLTQAELAERAGLGQGTISRYEKGRTLPSPEQVEKLLAAL)", "values": [{"measurement": "Number of the 13 tested DNA target sequences preferentially bound", "setting": "13 unique dsDNA targets; 1 μM dsDNA with avidity", "result": "less than 3"}, {"measurement": "Binding specificity versus design models", "setting": "13 unique dsDNA targets", "result": "bound with specificity closely consistent with the design models"}]}, {"molecule": "DBP83: designed DNA-binding protein, SEQ ID NO: 43, DNA target A (PREREILRLLAEGKNAWEIAQILNISVRTVRNHLRNAMRKLGARNRVQAVARALRLG)", "values": [{"measurement": "Number of the 13 tested DNA target sequences preferentially bound", "setting": "13 unique dsDNA targets; 1 μM dsDNA with avidity", "result": "less than 3"}]}, {"molecule": "DBP44: designed DNA-binding protein, SEQ ID NO: 18, DNA target G (KEERVLAALEAHPWSTLAEIAELTGLSRSTVSRILSRLRKEGKCDSRREGRKVRYWLVRR)", "values": [{"measurement": "Target sequence preference", "setting": "13 unique dsDNA targets", "result": "bound to most of the targets"}]}, {"molecule": "DBP69: designed DNA-binding protein, SEQ ID NO: 38, DNA target C (MKEEGRKLKELRERLGLTQAELAEALGLGQSTISRLERGRKEISPEVWEKALALLE)", "values": [{"measurement": "Number of the 13 tested DNA target sequences preferentially bound", "setting": "13 unique dsDNA targets; 1 μM dsDNA with avidity", "result": "less than 3"}, {"measurement": "Binding specificity versus design models", "setting": "13 unique dsDNA targets", "result": "bound with specificity closely consistent with the design models"}]}, {"molecule": "B1", "values": [{"measurement": "Number of the 13 tested DNA target sequences preferentially bound", "setting": "13 unique dsDNA targets; 1 μM dsDNA with avidity", "result": "less than 3"}, {"measurement": "Target sequence preference", "setting": "13 unique dsDNA targets", "result": "strong preference for 2 or 3 of the sequence targets"}, {"measurement": "Binding specificity versus design models", "setting": "13 unique dsDNA targets", "result": "bound with specificity closely consistent with the design models"}, {"measurement": "Fold activation of synTFs measured as normalized barcode abundance in the DNA TAPE", "setting": "[2]", "result": "3-5 fold"}]}, {"molecule": "B2", "values": [{"measurement": "Number of the 13 tested DNA target sequences preferentially bound", "setting": "13 unique dsDNA targets; 1 μM dsDNA with avidity", "result": "less than 3"}, {"measurement": "Binding specificity versus design models", "setting": "13 unique dsDNA targets", "result": "bound with specificity closely consistent with the design models"}, {"measurement": "DNA binding site specificity", "setting": "[1]", "result": "specificities consistent with the designed sidechain-base interactions"}]}, {"molecule": "B3", "values": [{"measurement": "Number of the 13 tested DNA target sequences preferentially bound", "setting": "13 unique dsDNA targets; 1 μM dsDNA with avidity", "result": "less than 3"}, {"measurement": "Target sequence preference", "setting": "13 unique dsDNA targets", "result": "strong preference for only their designed target sequence"}, {"measurement": "Binding specificity versus design models", "setting": "13 unique dsDNA targets", "result": "bound with specificity closely consistent with the design models"}, {"measurement": "DNA binding site specificity", "setting": "[1]", "result": "dependent on bases peripheral to the binding site (e.g. C11); also recorded: exhibited specificity for its target site"}]}, {"molecule": "B4", "values": [{"measurement": "Number of the 13 tested DNA target sequences preferentially bound", "setting": "13 unique dsDNA targets; 1 μM dsDNA with avidity", "result": "less than 3"}, {"measurement": "Binding specificity versus design models", "setting": "13 unique dsDNA targets", "result": "bound with specificity closely consistent with the design models"}]}, {"molecule": "B5", "values": [{"measurement": "Binding specificity versus design models", "setting": "13 unique dsDNA targets", "result": "bound with specificity closely consistent with the design models"}]}, {"molecule": "B6", "values": [{"measurement": "Binding specificity versus design models", "setting": "13 unique dsDNA targets", "result": "bound with specificity closely consistent with the design models"}]}, {"molecule": "B7", "values": [{"measurement": "Target sequence preference", "setting": "13 unique dsDNA targets", "result": "bound to most of the targets"}]}]}
